From patent US20240059797A1 (GRITSTONE BIO, published 2024)

B1: G5(1H11) scFv (scFv, V domains shown)
VH: EVQLLESGGGLVKPGGSLRLSCAASGFTFSDYYMSWVRQAPGKGLEWVSYISSSSSYTNYADSVKGRFTISRDDSKNTLYLQMNSLKTEDTAVYYCARDVVANFDYWGQGTLVTVSS
VL: EIVMTQSPATLSVSPGERATLSCRASQSVSSNLAWYQQKPGQAPRLLIYAASARASGIPARFSGSGSGTEFTLTISSLQSEDFAVYYCQQYGSWPRTFGQGTKVEIK
B2: G10(4A02) scFv (scFv, V domains shown)
VH: QVQLVQSGAEVKKPGASVKVSCKASGYTLSYYYMHWVRQAPGQGLEWMGMIGPSDGSTSYAQRFQGRVTMTRDTSTGTVYMELSSLRSEDTAVYYCARDTGDHFDYWGQGTLVTVSS
VL: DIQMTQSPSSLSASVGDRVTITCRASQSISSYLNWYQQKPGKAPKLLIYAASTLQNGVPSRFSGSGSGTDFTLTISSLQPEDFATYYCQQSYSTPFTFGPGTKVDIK
B3: G10(4G06) scFv (scFv, V domains shown)
VH: QVQLVQSGAEVKKPGASVKVSCKASGYTLSYYYMHWVRQAPGQGLEWMGMIGPSDGSTSYAQRFQGRVTMTRDTSTGTVYMELSSLRSEDTAVYYCARDTGDHFDYWGQGTLVTVSS
VL: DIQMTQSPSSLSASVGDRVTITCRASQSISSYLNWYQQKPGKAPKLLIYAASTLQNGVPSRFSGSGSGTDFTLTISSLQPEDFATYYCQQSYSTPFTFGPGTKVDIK
B4: G5(1D06) scFv (scFv, V domains shown)
VH: QVQLVQSGAEVKKPGASVKVSCKASGYTFTSYDINWVRQAPGQGLEWMGWINPNSGDTKYSQKFQGRVTMTRDTSTSTVYMELSSLRSEDTAVYYCARDGTRYYGMDVWGQGTTVTVSS
VL: not shown
B5: G5(3G01) scFv (scFv, V domains shown)
VH: QVQLVQSGAEVKKPGASVKVSCKASGGTFSGYLVSWVRQAPGQGLEWMGWINPNSGGTNTAQKFQGRVTMTRDTSTSTVYMELSSLRSEDTAVYYCAREGYGMDVWGQGTTVTVSS
VL: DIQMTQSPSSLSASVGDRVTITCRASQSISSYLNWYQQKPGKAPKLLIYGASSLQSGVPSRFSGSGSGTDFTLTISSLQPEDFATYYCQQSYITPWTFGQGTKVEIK
B6: G5(1B12) scFv (scFv, V domains shown)
VH: EVQLLESGGGLVQPGGSLRLSCAASGFTFSNSDMNWVRQAPGKGLEWVASISSSGGYINYADSVKGRFTISRDNSKNTLYLQMNSLRAEDTAVYYCAKVNWNDGPYFDYWGQGTLVTVSS
VL: DIQMTQSPSSLSASVGDRVTITCRASQSISSWLAWYQQKPGKAPKLLIYAASSLQSGVPSRFSGSGSGTDFTLTISSLQPEDFATYYCQQANSFPLTFGGGTKVEIK
B7: G5(4E04) scFv (scFv, V domains shown)
VH: QVQLVQSGAEVKKPGASVKVSCKASGGTFSSYGISWVRQAPGQGLEWMGWINPNSGVTKYAQKFQGRVTMTRDTSTSTVYMELSSLRSEDTAVYYCARGDYYFDYWGQGTLVTVSS
VL: DIQMTQSPSSLSASVGDRVTITCRASQSISRFLNWYQQKPGKAPKLLIYGASRPQSGVPSRFSGSGSGTDFTLTISSLQPEDFATYYCQQSYSTPLTFGQGTKVEIK
B8: G5(1C12) scFv (scFv, V domains shown)
VH: QVQLVQSGAEVKKPGSSVKVSCKASGGTFSNFGVSWLRQAPGQGLEWMGGIIPILGTANYAQKFQGRVTITADESTSTAYMELSSLRSEDTAVYYCATPTNSGYYGPYYYYGMDVWGQGTTVTVSS
VL: DIQMTQSPSSLSASVGDRVTITCRASQSISSWLAWYQQKPGKAPKLLIYAASTLQSGVPSRFSGSGSGTDFTLTISSLQPEDFATYYCQQSYSIPLTFGGGTKVEIK
notes: also called G5-P1C12
B9: G5(3G08) scFv (scFv, V domains shown)
VH: QVQLVQSGAEVKKPGASVKVSCKASGYIFRNYPMHWVRQAPGQGLEWMGWINPDSGGTKYAQKFQGRVTMTRDTSTSTVYMELSSLRSEDTAVYYCARDNGVGVDYWGQGTLVTVSS
VL: DIQMTQSPSSLSASVGDRVTITCRASQGISNYLAWYQQKPGKAPKLLIYAASSLQSGVPSRFSGSGSGTDFTLTISSLQPEDFATYYCQQSYITPYTFGQGTKLEIK
B10: G10(4D10) scFv (scFv, V domains shown)
VH: QVQLVQSGAEVKKPGASVKVSCKASGYTFTGYYLHWVRQAPGQGLEWMGMIGPSDGSTSYAQKFQGRVTMTRDTSTSTVYMELSSLRSEDTAVYYCARDGDAFDIWGQGTMVTVSS
VL: DIQMTQSPSSLSASVGDRVTITCRASQGISSWLAWYQQKPGKAPKLLIYDASNLETGVPSRFSGSGSGTDFTLTISSLQPEDFATYYCQQSYSTPLTFGGGTKVEIK
B11: G10(3E04) scFv (scFv, V domains shown)
VH: QVQLVQSGAEVKKPGASVKVSCKASGNTFIGYYVHWVRQAPGQGLEWVGIINPNGGSISYAQKFQGRVTMTRDTSTSTVYMELSSLRSEDTAVYYCARGSGDPNYYYYYGLDVWGQGTTVTVSS
VL: DIQMTQSPSSLSASVGDRVTITCQASQDISNYLNWYQQKPGKAPKLLIYAASNLQSGVPSRFSGSGSGTDFTLTISSLQPEDFATYYCQQANSLPYTFGQGTKVEIK
B12: G5(4B02) scFv (scFv, V domains shown)
VH: QVQLVQSGAEVKKPGASVKVSCKASGYTFTGYYMHWVRQAPGQGLEWMGWMNPNIGNTGYAQKFQGRVTMTRDTSTSTVYMELSSLRSEDTAVYYCARGIADSGSYYGNGRDYYYGMDVWGQGTTVTVSS
VL: DIVMTQSPDSLAVSLGERATINCKTSQSVLYRPNNENYLAWYQQKPGQPPKLLIYQASIREPGVPDRFSGSGSGTDFTLTISSLQAEDVAVYYCQQYYTTPYTFGQGTKLEIK
B13: G5(1E05) scFv (scFv, V domains shown)
VH: QVQLVQSGAEVKKPGASVKVSCKASGYTFTSYNMHWVRQAPGQGLEWMGWINPNSGGTNYAQKFQGRVTMTRDTSTSTVYMELSSLRSEDTAVYYCARDVMDVWGQGTTVTVSS
VL: DIQMTQSPSSLSASVGDRVTITCRASQGISNYLNWYQQKPGKAPKLLIYYASSLQSGVPSRFSGSGSGTDFTLTISSLQPEDFATYYCQQTYMMPYTFGQGTKVEIK
B14: G10(4C05) scFv (scFv, V domains shown)
VH: QVQLVQSGAEVKKPGASVKVSCKASGYTFTGYYMHWVRQAPGQGLEWMGIIGPSDGSTTYAQKFQGRVTMTRDTSTSTVYMELSSLRSEDTAVYYCARAENGMDVWGQGTTVTVSS
VL: DIQMTQSPSSLSASVGDRVTITCRASQRISSYLNWYQQKPGKAPKLLIYSASTLQSGVPSRFSGSGSGTDFTLTISSLQPEDFATYYCQQSYSTPFTFGPGTKVDIK
B15: G10(4D04) scFv (scFv, V domains shown)
VH: QVQLVQSGAEVKKPGASVKVSCKASGYTFTGYYVHWVRQAPGQGLEWMGIIAPSDGSTNYAQKFQGRVTMTRDTSTSTVYMELSSLRSEDTAVYYCARDPGGYMDVWGKGTTVTVSS
VL: DIQMTQSPSSLSASVGDRVTITCRASQSISSYLAWYQQKPGKAPKLLIYDASKLETGVPSRFSGSGSGTDFTLTISSLQPEDFATYYCQQSYGVPTFGQGTKLEIK
B16: G10(4E07) scFv (scFv, V domains shown)
VH: QVQLVQSGAEVKKPGSSVKVSCKASGYTFTGYYMHWVRQAPGQGLEWMGRISPSDGSTTYAPKFQGRVTITADESTSTAYMELSSLRSEDTAVYYCARDMGDAFDIWGQGTTVTVSS
VL: not shown
B17: G10(5C08) scFv (scFv, V domains shown)
VH: QVQLVQSGAEVKKPGASVKVSCKASGYNFTGYYMHWVRQAPGQGLEWMGIIAPSDGSTNYAQKFQGRVTMTRDTSTSTVYMELSSLRSEDTAVYYCARETGDDAFDIWGQGTMVTVSS
VL: not shown

Assays:
[1] = target: T1, HLA-B*35:01_… (HLA-PEPTIDE target G5), recombinant biotinylated complex (human, enzymatically biotinylated (BirA)); test: scFv PPE ELISA
T1 construct: also called G5-pHLA

[2] = target: HLA-A*01:01_… (HLA-PEPTIDE target G10), recombinant biotinylated complex (human, enzymatically biotinylated (BirA)); test: scFv PPE ELISA

Row | Binder | fold selective binding to target pHLA over minipool of negative control pHLAs [1] [fold] | fold selective binding to target pHLA over minipool of negative control pHLAs [2] [fold]
1 | B1 | ≥ 3 | 
2 | B2 |  | ≥ 3
3 | B3 |  | ≥ 3
4 | B4 | ≥ 3 | 
5 | B5 | ≥ 3 | 
6 | B6 | ≥ 3 | 
7 | B7 | ≥ 3 | 
8 | B8 | ≥ 3 | 
9 | B9 | ≥ 3 | 
10 | B10 |  | ≥ 3
11 | B11 |  | ≥ 3
12 | B12 | ≥ 3 | 
13 | B13 | ≥ 3 | 
14 | B14 |  | ≥ 3
15 | B15 |  | ≥ 3
16 | B16 |  | ≥ 3
17 | B17 |  | ≥ 3
